# Results as given in CN114262377A (XINJIANG YOUMAI BIOTECHNOLOGY CO LTD, dated 2022).
# T1: cyno-CD70-His (cynomolgus monkey, UniProt A0A2K5WTU9 39-190)
# T1 construct: also called 食蟹猴CD70蛋白; 猴CD70; not shown: His tag
# T1 sequence: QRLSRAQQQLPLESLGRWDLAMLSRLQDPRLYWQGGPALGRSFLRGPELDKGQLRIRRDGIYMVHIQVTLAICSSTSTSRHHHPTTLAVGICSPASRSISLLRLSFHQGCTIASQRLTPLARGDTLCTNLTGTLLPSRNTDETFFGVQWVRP
# T2: human CD70-His (human, UniProt P32970 39-193, limits assumed)
# T2 construct: also called 重组CD70蛋白; human CD70-His (Cat#CDL-H82D7); not shown: His tag
# T2 sequence (looked up): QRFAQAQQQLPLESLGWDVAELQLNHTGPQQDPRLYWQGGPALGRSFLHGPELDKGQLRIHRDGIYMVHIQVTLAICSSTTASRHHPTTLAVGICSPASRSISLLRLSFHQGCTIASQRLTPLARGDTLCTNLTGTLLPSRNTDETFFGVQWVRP
# T3: mouse CD70-His (mouse, UniProt O55237 45-195, limits assumed)
# T3 construct: also called 鼠CD70; not shown: His tag
# T3 sequence (looked up): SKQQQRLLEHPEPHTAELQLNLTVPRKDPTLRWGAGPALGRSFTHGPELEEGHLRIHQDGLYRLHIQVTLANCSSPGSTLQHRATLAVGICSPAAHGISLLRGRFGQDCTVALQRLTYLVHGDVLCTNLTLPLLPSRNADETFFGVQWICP
# T4: CD70 on 卵巢癌细胞SKOV3 (UniProt P32970 1-193, limits assumed)
# T4 construct: whole, on cells; also called 肿瘤细胞
# T4 sequence (looked up): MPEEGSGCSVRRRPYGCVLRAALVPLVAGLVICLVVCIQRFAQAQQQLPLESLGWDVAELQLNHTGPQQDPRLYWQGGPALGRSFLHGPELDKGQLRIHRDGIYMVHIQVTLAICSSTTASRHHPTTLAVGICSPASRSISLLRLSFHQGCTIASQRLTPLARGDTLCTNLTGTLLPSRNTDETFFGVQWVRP
# T5: mFc-CD70
# T5 sequence (P32970 whole entry, species assumed, looked up): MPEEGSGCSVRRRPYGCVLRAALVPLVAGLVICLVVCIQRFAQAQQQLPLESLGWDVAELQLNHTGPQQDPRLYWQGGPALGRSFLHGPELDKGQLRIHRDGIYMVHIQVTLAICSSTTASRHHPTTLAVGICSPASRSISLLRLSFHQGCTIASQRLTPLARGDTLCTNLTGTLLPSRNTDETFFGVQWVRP
# Tests used:
# cyno-CD70-His = biological target: T1, cyno-CD70-His; assay: ELISA, cyno-CD70-His coated 0.5 ug/ml, HRP-anti-human Fc
# human CD70-His [1] = biological target: T2, human CD70-His; assay: ELISA, human CD70-His coated 0.5 ug/ml, HRP-anti-human Fc
# mouse CD70-His = biological target: T3, mouse CD70-His; assay: ELISA, mouse CD70-His coated 0.5 ug/ml, HRP-anti-human Fc
# CD70 on 卵巢癌细胞SKOV3 = biological target: T4, CD70 on 卵巢癌细胞SKOV3; assay: flow cytometry (MFI) on SKOV3 cells, goat anti-human IgG Fc-FITC
# mFc-CD70 = biological target: T5, mFc-CD70; assay: competition ELISA: blocks mFc-CD70 (75 ng/ml) binding to coated human CD27-His
# human CD70-His [2] = biological target: T2, human CD70-His; assay: BLI (Fortebio), AHC sensor, antibody loaded at 4 ug/ml, human CD70-His trimer 60 nM in solution
EC50 (cyno-CD70-His) [µg/mL],EC50 (human CD70-His [1]) [µg/mL],binding result (mouse CD70-His),EC50 (CD70 on 卵巢癌细胞SKOV3) [nM],IC50 (mFc-CD70) [µg/mL],Kd (human CD70-His [2]) [nM],Binder
0.00571,0.0244,no binding,1.74,0.0576,< 0.001,"CHO细胞表达的含有人IgG-Fc结构域的CD70纳米抗体VHH-B6-Fc (Fc fusion, Order VHH then Fc follows the printed name; also called XJ-B6; VHH-B6 (as named in the results of the Fc-format assays); not shown: human IgG Fc domain) QVQLQESGGGSVQAGGSLRLSCVASDLIVNDGCMAWFRQVPGKEHEGVARIAIPTTPGSTLYADSVKGRFTISRDGAKNTLYLQMNSLKPEDTAVYYCAADQWASRGCTAIATIPAEFDYWGQGTQVTVSS"
–,0.0251,no binding,0.374,0.06,< 0.001,"CHO细胞表达的含有人IgG-Fc结构域的CD70纳米抗体VHH-B3-Fc (Fc fusion, Order VHH then Fc follows the printed name; also called XJ-B3; VHH-B3 (as named in the results of the Fc-format assays); not shown: human IgG Fc domain) LQESGGGSVQAGGSLRLSCAASGIIVNDGCMAWFRQVPGKEREGVAGIVIGEYGGGTTYYADSVKGRFTISRDRAKNTLYLQMNSLKPEDTAMYYCAADQWASGGCTSIATFSDEFDYWGQGTQVTVSS"
